Data set [1] addresses T1, NPR-B receptor positive cell line, NIH/3T3 (Mus musculus, UniProt Q6VVW5).
T1 construct: natrieuretic peptide type C receptor B (NPR-B) positive cell line, NIH/3T3 and the negative cell line of HEK293 cells; endogenous in cells; host or cells: NIH/3T3
T1 sequence (Q6VVW5 17-1047): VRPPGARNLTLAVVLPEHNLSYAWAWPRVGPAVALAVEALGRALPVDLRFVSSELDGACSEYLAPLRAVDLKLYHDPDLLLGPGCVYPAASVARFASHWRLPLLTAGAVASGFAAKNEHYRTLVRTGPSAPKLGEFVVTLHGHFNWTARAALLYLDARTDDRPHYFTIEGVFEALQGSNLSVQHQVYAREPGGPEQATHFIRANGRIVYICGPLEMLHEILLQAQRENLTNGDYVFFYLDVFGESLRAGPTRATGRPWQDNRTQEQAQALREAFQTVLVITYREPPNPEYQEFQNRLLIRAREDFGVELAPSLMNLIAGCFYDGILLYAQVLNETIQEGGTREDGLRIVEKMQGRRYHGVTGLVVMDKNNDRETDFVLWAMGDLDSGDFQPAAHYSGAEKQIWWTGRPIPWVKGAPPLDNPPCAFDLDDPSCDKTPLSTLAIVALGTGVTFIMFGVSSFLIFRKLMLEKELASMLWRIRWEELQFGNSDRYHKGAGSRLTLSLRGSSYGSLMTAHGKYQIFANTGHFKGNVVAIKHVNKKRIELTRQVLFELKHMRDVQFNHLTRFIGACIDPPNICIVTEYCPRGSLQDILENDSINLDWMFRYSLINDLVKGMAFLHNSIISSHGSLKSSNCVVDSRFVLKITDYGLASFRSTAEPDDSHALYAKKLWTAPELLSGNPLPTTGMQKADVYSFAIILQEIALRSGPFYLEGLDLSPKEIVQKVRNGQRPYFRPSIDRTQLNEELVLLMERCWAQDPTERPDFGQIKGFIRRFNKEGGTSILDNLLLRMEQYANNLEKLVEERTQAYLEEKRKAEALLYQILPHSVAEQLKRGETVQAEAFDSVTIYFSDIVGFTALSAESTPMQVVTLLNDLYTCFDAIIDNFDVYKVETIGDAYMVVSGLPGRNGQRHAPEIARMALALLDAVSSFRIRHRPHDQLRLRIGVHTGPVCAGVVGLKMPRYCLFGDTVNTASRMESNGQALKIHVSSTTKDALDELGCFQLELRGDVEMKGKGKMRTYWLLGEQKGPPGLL
Briefly: Stimulation of cGMP production in NPR-B positive cells (cGMP ELISA). The class given is cell-based. Conditions: FIG. 7A. The procedure:
The biological function of these purified protein was assayed for their stimulation of production of cGMP, using NPR-B receptor positive cell line, NIH/3T3 and NPR-B negative cell line HEK293 cells. The determination of cGMP was assay by ELISA using commercial CNP as standard curves. […] Surface preparation. NBR-B was immobilized at different levels in three flow cells via standard amine coupling, leaving Fc 1 unmodified to serve as a reference. All surface plasmon resonance (SPR) analysis was performed on a BIAcore 3000 system using series CM5 sensor chips. Data processing and analysis were performed using BIAevaluation software. All sensorgrams were double referenced by subtracting the response on a reference flow cell and a blank sample. Human NPR-B (R&D system) was covalently attached to a CM5 chip via amine coupling. A surface density of 6600 RU was used for measurements with natriuretic peptides Sequential injections of CNP (0.5-8 nM) were performed at a flow rate of […] (300 s for each), followed by a dissociation time of 900 s. […] Kinetic parameters were calculated assuming a simple 1:1 (Langmuir) binding. […] Kinetic parameters were calculated assuming a simple 1:1 (Langmuir) binding. […] Kinetic parameters were calculated assuming a simple 1:1 (Langmuir) binding. […] Kinetic parameters were calculated assuming a simple 1:1 (Langmuir) binding. […]
For orientation: ELISA stands for enzyme-linked immunosorbent assay.

Data set [2] relates to NIH3T3 cells (cGMP secreted). Briefly: EC50 for CNP-Fc constructs, cGMP ELISA of NIH3T3 supernatant. Format: cell-based. Conditions: NIH3T3, 30 minutes, 1.8 mM IBMX, cGMP secreted by the cells; FIG. 25B. The procedure:
EC50 for CNP-Fc described herein were measured by ELISA. 2.5E+05 NIH3T3 cells/well were plated. […] After 30 minutes, supernatant was collected for cGMP determined via ELISA. FIG. 25A illustrates a standard curve of cGMP.

Data set [3] in a line: NMDA mouse study: in-house CNP36-Fc ELISA of ocular (whole globe) and serum samples.
Protocol: Animals in Groups 3-6 had terminal blood collected on Day 7. IBMX was used during blood collection to inhibit phosphodiesterase activity. […] Briefly, each syringe for cardiac puncture was pre-rinsed with a stock solution of 10 mM IBMX prior to drawing blood. All mice were sedated to a deep plane of sedation under isoflurane and euthanized via exsanguination. After each syringe was pre-rinsed with 10 mM IBMX, a 25 G needle was inserted into the heart and the animal was exsanguinated and euthanized, and blood was collected. The volume of blood collected was noted on the paperwork and the appropriate volume of IBMX was added into a 1.5 mL RNAse/DNAse-free microfuge tube. […]
Bioanalytical work and the accompanying analyses were performed at the conclusion of the study. […] Left eyes (OS) from all animals (n=8) in each group receiving the different AAV constructs were analyzed. […]
The CNP36 and CNP-Fc36 expression in ocular (whole globes) and serum samples was quantified using the commercial CNP36 ELISA kit and in-house CNP36-Fc ELISA (Example 2), respectively. […] After a 45 min incubation, plates were washed and CNP36-Fc was detected by the addition of 3,3′,5,5′-tetramethylbenzidine (TMB) substrate. The reaction was stopped by the addition of stop solution and the plate was read immediately at 450 nm along with the reference wavelength of 600 nm. […]

For the substance “AMI088: purified fusion protein Fc1-(G4S)4-CNP36 (IgG1 Fc), SEQ ID NO: 133”, the “cGMP production stimulated by AAV vector encoded CNP or CNP-Fc” value in data set [1] was “highest level of cGMP”. The “EC50 values (rank order)” value in data set [2] is on record as “CNP-22 ≡Fc4-CNP36>Aflibercept-Fc4-CNP36>Fc1-CNP36>>Fc4-CNP22”. Further, in data set [3] (Day 7 serum), the “CNP36-Fc expression in serum samples” value was “Neither CNP36-Fc nor CNP36 were expressed”. Also, in data set [3] (mouse, in vivo), the “stability of CNP36-Fc in ocular samples” value is “stable and thus quantifiable”.

The values above are taken from patent publication US20250099622A1, “COMPOSITIONS AND METHODS FOR EXPRESSING THERAPEUTICS” (priority 2022, published 2025).
